From patent publication US20230295310A1 (ABCELLERA BIOLOGICS, published 2023)
Substitutions are numbered along the chain they refer to. One block for each binder: values may come before it.

Molecular target: human EGFR, C-terminal eGFP-tagged, on CHO-K1 cells (human, UniProt P00533 25-1210)
Test: cell-based or functional assay

EC50 CHO-K1 EGFR Low (nM); T cell activation bioassay, luciferase: 0.0248 nM | EC50 CHO-K1 EGFR Med (nM); T cell activation bioassay, luciferase: 0.00489 nM
B1: GOMP001_bsAb_038 (bispecific antibody, human IgG1, kappa, L234A L235A)
heavy 1: EVQLVESGGVLVKTGGSLRLSCVASGFSFKKAWMNWVRYAPGKGLEWVGRIKRNSDGGAADYAARVKDRFTLSRDDSKNTLYLQMNSLKTEDTAVYYCTTLDSSSWYVGYYYMDVWGRGTTVTVSSASTKGPSVFPLAPSSKSTSGGTAALGCLVKDYFPEPVTVSWNSGALTSGVHTFPAVLQSSGLYSLSSVVTVPSSSLGTQTYICNVNHKPSNTKVDKKVEPKSCDKTHTCPPCPAPEAAGGPSVFLFPPKPKDTLMISRTPEVTCVVVDVSHEDPEVKFNWYVDGVEVHNAKTKPREEQYNSTYRVVSVLTVLHQDWLNGKEYKCKVSNKALPAPIEKTISKAKGQPRRPRVYTLPPSREEMTKNQVSLVCLVKGFYPSDIAVEWESNGQPENNYKTTPPVLDSDGSFFLYSVLTVDKSRWQQGNVFSCSVMHEALHNHYTQKSLSLSPG
light 1: DIHMTQSPSSVSASLGDRVTFTCRASQNINNWLAWYQRKPGDAPKLLIYTASSLQSGVPSRFSGSGSGTDFTLTISSLQPDDFATYYCQQAHSLPITFGQGTRLGIKRTVAAPSVFIFPPSDEQLKSGTASVVCLLNNFYPREAKVQWKVDNALQSGNSQESVTEQDSKDSTYSLSSTLTLSKADYEKHKVYACEVTHQGLSSPVTKSFNRGEC
heavy 2: QVQLVQSGAEVKKPGASVKVSCKASGYTFTSHWMHWVRYAPGQGLEWIGEFNPSNGRTNYNEKFKSKATMTVDTSTNTAYMELSSLRSEDTAVYYCASRDYDYDGRYFDYWGRGTLVTVSSASTKGPSVFPLAPSSKSTSGGTAALGCLVKDYFPEPVTVSWNSGALTSGVHTFPAVLQSSGLYSLSSVVTVPSSSLGTQTYICNVNHKPSNTKVDKKVEPKSCDKTHTCPPCPAPEAAGGPSVFLFPPKPKDTLMISRTPEVTCVVVDVSHEDPEVKFNWYVDGVEVHNAKTKPREEQYNSTYRVVSVLTVLHQDWLNGKEYKCKVSNKALPAPIEKTISKAKGQPRRPRVYTLPPSREEMTKNQVSLVCLVKGFYPSDIAVEWESNGQPENNYKTTPPVLDSDGSFFLYSVLTVDKSRWQQGNVFSCSVMHEALHNHYTQKSLSLSPG
light 2: DIQMTQSPSSLSASVGDRVTITCSASSSVTYMYWYQRKPGDAPKLLIYDTSNLASGVPSRFSGSGSGTDYTFTISSLQPEDIATYYCQQWSSHIFTFGQGTKVEIKRTVAAPSVFIFPPSDEQLKSGTASVVCLLNNFYPREAKVQWKVDNALQSGNSQESVTEQDSKDSTYSLSSTLTLSKADYEKHKVYACEVTHQGLSSPVTKSFNRGEC

EC50 CHO-K1 EGFR Low (nM); T cell activation bioassay, luciferase: 0.369 nM | EC50 CHO-K1 EGFR Med (nM); T cell activation bioassay, luciferase: 0.0257 nM
B2: GOMP001_bsAb_039 (bispecific antibody, human IgG1, kappa, L234A L235A)
heavy 1: QVQLVQSGAEVKKPGASVKVSCKASGYTFTSHWMHWVRKAPGQGLEWIGEFNPSNGRTNYNEEFKSKATMTVDTSTNTAYMELSSLRSEDTAVYYCASRDYDYDGRYFDYWGQGTLVTVSSASTKGPSVFPLAPSSKSTSGGTAALGCLVADYFPEPVTVSWNSGALTSGVHTFPAVLQSSGLYSLSSVVTVPSSSLGTQTYICNVNHKPSNTKVDEKVEPKSCDKTHTCPPCPAPEAAGGPSVFLFPPKPKDTLMISRTPEVTCVVVDVSHEDPEVKFNWYVDGVEVHNAKTKPREEQYNSTYRVVSVLTVLHQDWLNGKEYKCKVSNKALPAPIEKTISKAKGQPREPQVYTLPPSREEMTDNQVSLTCLVKGFYPSDIAVEWESNGQPENNYKTTPPVLMSDGSFFLASKLTVDKSRWQQGNVFSCSVMHEALHNHYTQKSLSLSPG
light 1: B1 light 2 with D1R, R37D, D41K, E122K, S130R
heavy 2: B1 heavy 1 with V10G, L18H, A59T, A60T, D68G, T71I
light 2: B1 light 1 with H3Q, L15V, F21I, N28D, L46I, S53N, D81E, Y87F, G105E
